Target: GST-NTF2L (GST-tagged NTF2-like domain of G3BP1) (human)
Assay: SPR

Sequence of GST-NTF2L (GST-tagged NTF2-like domain of G3BP1) (human) (chain, as listed by the source): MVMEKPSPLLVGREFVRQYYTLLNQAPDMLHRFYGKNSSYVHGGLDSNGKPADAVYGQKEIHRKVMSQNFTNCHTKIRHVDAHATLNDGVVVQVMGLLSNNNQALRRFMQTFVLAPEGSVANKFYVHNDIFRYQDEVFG

Row | Binder | Kd [µM]
1 | MALHSPQYIFGDFSPDEFNQFFVTP [USP10 (1–25) peptide] | 0.11
2 | LTFGDFDEHEVDALASGITFGDFDD [SFV nsP3 (449–473) peptide] | 2.5
